We go through one molecule from patent US20080200416A1 (Stanford University, published 2008).

For this test, the target named is T1, SHP-2 (mouse, UniProt P35235 2-593, limits assumed).
T1 construct: Endogenous protein probed in anti-Lck immunoprecipitates; also called tyrosine phosphatase SHP-2
T1 sequence (looked up): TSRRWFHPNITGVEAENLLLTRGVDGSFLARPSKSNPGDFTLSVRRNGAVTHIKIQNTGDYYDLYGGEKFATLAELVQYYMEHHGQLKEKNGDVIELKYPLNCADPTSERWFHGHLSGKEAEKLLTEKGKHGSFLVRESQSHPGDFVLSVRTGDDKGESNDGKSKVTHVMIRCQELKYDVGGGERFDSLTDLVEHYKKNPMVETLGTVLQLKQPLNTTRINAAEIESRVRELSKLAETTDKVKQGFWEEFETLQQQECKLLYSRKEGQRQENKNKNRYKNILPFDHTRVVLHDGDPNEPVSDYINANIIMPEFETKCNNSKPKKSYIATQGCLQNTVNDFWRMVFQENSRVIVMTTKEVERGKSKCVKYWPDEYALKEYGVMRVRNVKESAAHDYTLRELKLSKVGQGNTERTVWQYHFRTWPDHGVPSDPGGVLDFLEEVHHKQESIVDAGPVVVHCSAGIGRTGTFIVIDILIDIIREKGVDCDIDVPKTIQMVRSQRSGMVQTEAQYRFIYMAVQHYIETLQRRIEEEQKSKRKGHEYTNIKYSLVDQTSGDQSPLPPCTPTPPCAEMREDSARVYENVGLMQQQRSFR
The test can be described thus: co-immunoprecipitation with anti-Lck from 5C.C7 T cell lysates, Western blot. Here is the method:
(A) Western blot analyses of anti-Lck immuno-precipitates to detect site-specific phosphorylation. Phosphorylation of Lck at the activating Y394 or inhibitory Y505 before antigen stimulation were probed with specific antibodies. […] Membranes were stripped and re-probed for Lck as loading controls. (B) Induction of ERK phosphorylation by the antagonist MCC 99R. Virally-infected T cells were mixed with CH27 cells alone or CH27 cells preloaded with 10 μM MCC 99R, spun down to facilitate rapid T:APC contact, incubated at 37° C. for 5 minutes, and analyzed for ERK phosphorylation by Phosphor-Flow. Cells were gated on GFP and CD4 for virally-infected T cells. […] (D) Western blot analyses of anti-Lck immuno-precipitates to detect Lck serine phosphorylation before antigen stimulation. […] Double selected 5C.C7 T cells were mixed with peptide pre-loaded CH27 cells (10 μM MCC 99R or 1 μM MCC) by quick spin and incubated at 37° C. for 5 mins. SHP-1 was co-precipitated with Lck whereas SHP-2 was undetectable under the same condition.

B1: Lck (enzyme, mouse, UniProt P06240 2-509, looked up)
chain: GCVCSSNPEDDWMENIDVCENCHYPIVPLDSKISLPIRNGSEVRDPLVTYEGSLPPASPLQDNLVIALHSYEPSHDGDLGFEKGEQLRILEQSGEWWKAQSLTTGQEGFIPFNFVAKANSLEPEPWFFKNLSRKDAERQLLAPGNTHGSFLIRESESTAGSFSLSVRDFDQNQGEVVKHYKIRNLDNGGFYISPRITFPGLHDLVRHYTNASDGLCTKLSRPCQTQKPQKPWWEDEWEVPRETLKLVERLGAGQFGEVWMGYYNGHTKVAVKSLKQGSMSPDAFLAEANLMKQLQHPRLVRLYAVVTQEPIYIITEYMENGSLVDFLKTPSGIKLNVNKLLDMAAQIAEGMAFIEEQNYIHRDLRAANILVSDTLSCKIADFGLARLIEDNEYTAREGAKFPIKWTAPEAINYGTFTIKSDVWSFGILLTEIVTHGRIPYPGMTNPEVIQNLERGYRMVRPDNCPEELYHLMMLCWKERPEDRPTFDYLRSVLDDFFTATEGQYQPQP
notes: Endogenous protein in T cell lysates; the phosphorylation state varies with the condition
As for B1, the binding result was “no binding”.
